Source: US20240368668A1, “SUBSTRATES AND BIOMARKERS OF ADAMTS7” (The Broad Institute, Inc., priority 2021, published 2024)
Square brackets hold non-standard residues; d marks the D form. Ends that are not written are not given here. Met(O) = CS(=O)CC[C@H](N)C(=O)O

Molecular target: T1, mouse ADAMTS7 (Mus musculus, UniProt Q68SA9, E373Q)
T1 construct: Full-length mouse Adamts7 1-1857 (Uniprot Q68SA9, WT or E373Q catalytic mutant); expressed in transfected cells; host or cells: Human Coronary Artery Smooth Muscle Cells (HCA-SMC, Lonza), adenovirus 50 MOI
T1 sequence (Q68SA9 221-1657 E373Q): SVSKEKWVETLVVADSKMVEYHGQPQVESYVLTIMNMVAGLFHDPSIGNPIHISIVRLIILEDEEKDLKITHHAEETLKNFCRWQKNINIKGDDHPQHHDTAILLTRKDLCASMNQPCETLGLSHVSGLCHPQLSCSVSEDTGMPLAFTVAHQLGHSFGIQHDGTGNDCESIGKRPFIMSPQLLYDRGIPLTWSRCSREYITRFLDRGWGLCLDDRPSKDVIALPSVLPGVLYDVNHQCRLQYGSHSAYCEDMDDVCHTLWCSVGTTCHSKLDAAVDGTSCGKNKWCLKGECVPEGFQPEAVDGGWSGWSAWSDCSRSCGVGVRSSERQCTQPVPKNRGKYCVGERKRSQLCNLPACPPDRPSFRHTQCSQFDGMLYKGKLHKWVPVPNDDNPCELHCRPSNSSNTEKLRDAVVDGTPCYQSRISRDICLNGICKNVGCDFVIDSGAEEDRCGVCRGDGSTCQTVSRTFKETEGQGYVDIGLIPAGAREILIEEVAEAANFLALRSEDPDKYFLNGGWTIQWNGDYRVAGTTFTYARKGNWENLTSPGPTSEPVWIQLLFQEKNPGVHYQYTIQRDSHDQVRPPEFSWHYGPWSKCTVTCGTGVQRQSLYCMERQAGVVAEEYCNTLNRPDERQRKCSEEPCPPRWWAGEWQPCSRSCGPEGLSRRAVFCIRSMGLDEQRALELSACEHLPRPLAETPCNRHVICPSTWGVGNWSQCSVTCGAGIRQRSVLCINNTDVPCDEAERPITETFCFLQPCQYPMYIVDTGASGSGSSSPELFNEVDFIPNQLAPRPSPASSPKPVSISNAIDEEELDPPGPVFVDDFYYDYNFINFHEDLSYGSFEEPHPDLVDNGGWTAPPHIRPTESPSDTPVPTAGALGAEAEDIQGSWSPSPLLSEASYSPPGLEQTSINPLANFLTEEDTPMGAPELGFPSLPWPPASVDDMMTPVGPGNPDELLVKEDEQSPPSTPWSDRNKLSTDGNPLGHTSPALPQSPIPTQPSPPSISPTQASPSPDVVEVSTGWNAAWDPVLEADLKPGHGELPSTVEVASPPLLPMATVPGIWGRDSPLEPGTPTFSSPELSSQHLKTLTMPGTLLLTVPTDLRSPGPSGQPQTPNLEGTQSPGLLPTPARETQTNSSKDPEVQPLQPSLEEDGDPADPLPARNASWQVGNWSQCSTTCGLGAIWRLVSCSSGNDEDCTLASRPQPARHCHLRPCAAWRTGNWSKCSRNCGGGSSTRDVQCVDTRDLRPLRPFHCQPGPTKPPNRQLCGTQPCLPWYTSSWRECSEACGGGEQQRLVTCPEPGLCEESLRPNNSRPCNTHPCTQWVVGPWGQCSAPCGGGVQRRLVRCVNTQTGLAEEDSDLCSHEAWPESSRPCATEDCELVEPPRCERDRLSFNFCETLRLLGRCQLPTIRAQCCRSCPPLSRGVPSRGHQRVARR
Test: TMT10 TAILS N-terminomics, HUVEC experiment (process replicates, trypsin/AspN digest)
Assay type: cell-based, human
Conditions: HUVEC TAILS HC; log fold change of N-terminal peptide, Ad-mADAMTS7 EQ over Luc
Summary of the method: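 Full-length mouse ADAMTS7 (WT or E373Q mutant, C-terminal 3xFLAG) or luciferase was transduced via adenovirus, 50 MOI, into HCA-SMC (SMC1, SMC2) or HUVEC. SMC1: pooled media, technical triplicates 400 ug; SMC2: process triplicates 300 ug; HUVEC: process triplicates 200 ug, bFGF2 10 ng/ml.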

Substance	logFC.mEQ.over.Luc
LTBP2_253 (GEGTLAR; listed as Homo sapiens)	−0.09
THBS1_630 (FGQGVEHATANK; listed as Homo sapiens)	−0.01
PSAP_301 (LVEPIKKH; listed as Homo sapiens)	−0.06
CLU_267 (FQHPPTEFIR; listed as Homo sapiens)	−0.08
PZP_578 (HAHLQVAAAPQSLCALR; listed as Homo sapiens)	−0.34
CTGF_173 (TVVGPALAAYR; listed as Homo sapiens)	−0.45
LTBP3_205 (HAAFLVPLGPGQISA; listed as Homo sapiens)	−0.13
MCFD2_55 (HLEGVINKPEA; listed as Homo sapiens)	0.14
PTBP1_376 (AAAAAGR; listed as Homo sapiens)	0.06
FN1_1743 (WESPQGQVSR; listed as Homo sapiens)	−0.19
FN1_1624 (LVQTAVTTIPAPT; listed as Homo sapiens)	−0.16
LTBP3_221 (VQAPPPVVNVR; listed as Homo sapiens)	−0.39

Results, then the substance that gave them:

logFC.mEQ.over.Luc	Substance
−0.39	ASMT_321 (LSSAGFR; listed as Homo sapiens)
−0.31	CTGF_174 (VVGPALAAYR; listed as Homo sapiens)
0.18	ZYX_244 (PVSLANTQPR; listed as Homo sapiens)
−0.08	BICD1_280 (NNDDKMNGHIHGPLVKLNGDYR; listed as Homo sapiens)
−0.49	LTBP2_129 (QQQPAPR; listed as Homo sapiens)
−0.39	LTBP3_164 (LSTGALPPLAPEG; listed as Homo sapiens)
0.01	UQCRH_76 (HGSPNNSERAMRAVGE[Met(O)]CKGPGAAR; listed as Homo sapiens)
